In patent US20030007968A1, “Methods of inducing organ transplant tolerance and correcting hemoglobinopathies” (priority 2001, published 2003):
Values belong to the molecule of their own block, whether it stands above or below them.

Tests used:
[1] = molecular target: T1, CD86Ig (Homo sapiens, UniProt P42081); experiment: BIAcore surface plasmon resonance equilibrium and kinetic binding to immobilized CD86Ig; conditions: for slower “off” rate than wild type CTLA4Ig: screening of COS culture media samples over immobilized CD86Ig; for koff / kon: immobilized CD86Ig, means±standard deviation from three experiments
T1 construct: Ig (immunoglobulin fusion partner)
T1 sequence (P42081 with tags, fused parts or gaps limits assumed): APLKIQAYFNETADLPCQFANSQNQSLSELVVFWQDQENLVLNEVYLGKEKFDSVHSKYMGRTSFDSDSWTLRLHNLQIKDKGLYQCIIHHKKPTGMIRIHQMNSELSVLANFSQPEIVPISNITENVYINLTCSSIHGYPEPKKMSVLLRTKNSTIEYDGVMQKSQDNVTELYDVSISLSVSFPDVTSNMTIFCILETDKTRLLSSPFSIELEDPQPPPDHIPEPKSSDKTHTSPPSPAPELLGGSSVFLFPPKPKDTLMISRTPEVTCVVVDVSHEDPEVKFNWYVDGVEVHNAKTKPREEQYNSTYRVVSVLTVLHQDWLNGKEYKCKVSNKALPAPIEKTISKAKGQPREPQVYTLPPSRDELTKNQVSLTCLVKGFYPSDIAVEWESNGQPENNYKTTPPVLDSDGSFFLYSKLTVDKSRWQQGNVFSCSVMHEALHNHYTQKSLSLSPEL
From the text: (§1) To synthesize and screen soluble CTLA4 mutant molecules with altered affinities for a B7 molecule (e.g. CD80, CD86), a two-step strategy was adopted. The experiments entailed first generating a library of mutations at a specific codon of an extracellular portion of CTLA4 and then screening these by BIAcore analysis to identify mutants with altered reactivity to B7. The Biacore assay system (Pharmacia, Piscataway, N.J.) uses a surface plasmon resonance detector system that essentially involves covalent binding of either CD80Ig or CD86Ig to a dextran-coated sensor chip which is located in a detector. The test molecule can then be injected into the chamber containing the sensor chip and the amount of complementary protein that binds can be assessed based on the change in molecular mass which is physically associated with the dextran-coated side of the sensor chip; the change in molecular mass can be measured by the detector system.
(§2) COS cells were transfected with individual miniprep purified plasmid DNA and propagated for several days. Three day conditioned culture media was applied to BIAcore biosensor chips (Pharmacia Biotech AB, Uppsala, Sweden) coated with soluble CD80Ig or CD86Ig. The specific binding and dissociation of mutant proteins was measured by surface plasmon resonance (O'Shannessy, D. J., et al., 1997 Anal. Biochem. 212:457-468). All experiments were run on BIAcore™ or BIAcore™ 2000 biosensors at 25° C. Ligands were immobilized on research grade NCM5 sensor chips (Pharmacia) using standard N-ethyl-N′-(dimethylaminopropyl) carbodiimidN-hydroxysuccinimide coupling (Johnsson, B., et al. (1991) Anal. Biochem. 198: 268-277; Khilko, S. N., et al.(1993) J. Biol. Chem 268:5425-15434).
(§3) BIAcore analysis conditions and equilibrium binding data analysis were performed as described in J. Greene et al. 1996 J. Biol. Chem. 271:26762-26771 and in U.S. patent application Ser. Nos. 09/579,927, and 60/214,065 which are herein incorporated by reference.
(§4) Senosorgram baselines were normalized to zero response units (RU) prior to analysis. Samples were run over mock-derivatized flow cells to determine background RU values due to bulk refractive index differences between solutions. Equilibrium dissociation constants (Kd) were calculated from plots of Req versus C, where Req is the steady-state response minus the response on a mock-derivatized chip, and C is the molar concentration of analyte. Binding curves were analyzed using commercial nonlinear curve-fitting software (Prism, GraphPAD Software).
(§5) Experimental data were first fit to a model for a single ligand binding to a single receptor (1-site model, i.e., a simple langmuir system, A+B AB), and equilibrium […] constants (Kd=[A]·[B]\[AB]) were calculated from the equation R=Rmax·C/(Kd+C). Subsequently, data were fit to the simplest two-site model of ligand binding (i.e., to a receptor having two non-interacting independent binding sites as described by the equation R=Rmax1·C\(Kd1+C)+Rmax2·C\(Kd2+C).
(§6) The goodness-of-fits of these two models were analyzed visually by comparison with experimental data and statistically by an F test of the sums-of-squares.
(§7) Association and disassociation analyses were performed using BIA evaluation 2.1 Software Pharmacia). Association rate constants kon were calculated in two ways, assuming both homogenous single-site interactions and parallel two-site interactions. For single-site interactions, kon values were calculated according to the equation Rt=Req(1−exp^−ks(t-t0), where Rt is a response at a given time, t; Req is the steady-state response; to is the time at the start of the injection; and ks=dR/dt=kon·Ckoff, where C is a concentration of analyte, calculated in terms of monomeric binding sites. For two-site interactions kon values were calculated according to the equation Rt=Req1(1−exp^−ks1(t-t0)+Req2(1−exp^ks2(t-t0). For each model, the values of kon were determined from the calculated slope (to about 70% maximal association) of plots of ks versus C. […]

[2] = molecular target: T2, CD80Ig (Homo sapiens, UniProt P33681); experiment: BIAcore surface plasmon resonance equilibrium and kinetic binding to immobilized CD80Ig; conditions: for koff / kon: immobilized CD80Ig, means±standard deviation from three experiments
T2 construct: Ig (immunoglobulin fusion partner)
T2 sequence (P33681 with tags, fused parts or gaps limits assumed): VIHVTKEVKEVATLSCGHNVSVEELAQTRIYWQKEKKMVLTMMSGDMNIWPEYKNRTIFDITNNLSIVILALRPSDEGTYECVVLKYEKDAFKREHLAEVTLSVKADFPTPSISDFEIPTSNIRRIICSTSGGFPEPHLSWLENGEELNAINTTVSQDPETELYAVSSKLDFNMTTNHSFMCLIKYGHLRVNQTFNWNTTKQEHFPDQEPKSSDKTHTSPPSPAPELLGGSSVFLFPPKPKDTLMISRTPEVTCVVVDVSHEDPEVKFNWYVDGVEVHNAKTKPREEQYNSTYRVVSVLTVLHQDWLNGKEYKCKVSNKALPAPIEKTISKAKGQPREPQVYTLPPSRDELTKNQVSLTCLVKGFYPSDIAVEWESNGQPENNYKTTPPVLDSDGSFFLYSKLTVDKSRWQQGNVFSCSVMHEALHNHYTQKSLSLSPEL
From the text: as §1, §2, §3, §4, §5, §6, §7

[3] = tested on: C57BL/6 (B6) recipient mice; experiment: Congenic T cell-depleted bone marrow transplant after single busulfan dose, donor chimerism by flow cytometry; format: in vivo, mouse; conditions: busulfan 0, 10, 20, 30 mg/kg i.p. one day before 2×10^7 congenic T cell-depleted bone marrow cells
Method: Bone marrow preparation and treatment regimens.
Similar results were achieved when the busulfan was administered six or twelve hours before the administration of the T cell-depleted bone marrow cells.

[4] = with marrow rescue; cited from earlier work
[5] = molecular target: T3, CD80Ig (UniProt P33681 35-242, limits assumed); experiment: SPR, immobilized CD80Ig
T3 construct: Immobilized on the BIAcore chip by amine coupling; also called soluble CD80Ig
T3 sequence (looked up): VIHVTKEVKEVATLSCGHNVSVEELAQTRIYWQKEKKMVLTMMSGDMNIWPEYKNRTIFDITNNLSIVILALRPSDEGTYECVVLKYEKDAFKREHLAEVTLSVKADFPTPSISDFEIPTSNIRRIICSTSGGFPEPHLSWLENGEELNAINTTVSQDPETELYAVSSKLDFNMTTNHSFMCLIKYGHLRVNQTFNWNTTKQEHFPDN

[6] = molecular target: T4, CD86Ig (UniProt P42081 24-247, limits assumed); experiment: SPR (BIAcore), CD86Ig immobilized, purified monomeric analyte
T4 construct: Immobilized on the BIAcore chip by amine coupling; also called soluble CD86Ig
T4 sequence (looked up): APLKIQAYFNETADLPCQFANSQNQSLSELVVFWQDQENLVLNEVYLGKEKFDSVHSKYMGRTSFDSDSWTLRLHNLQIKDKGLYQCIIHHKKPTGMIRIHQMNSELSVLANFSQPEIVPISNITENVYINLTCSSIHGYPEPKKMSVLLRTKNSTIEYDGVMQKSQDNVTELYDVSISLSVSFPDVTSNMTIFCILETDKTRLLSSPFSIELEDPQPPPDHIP

[7] = molecular target: T4, CD86Ig; experiment: SPR (BIAcore), equilibrium, CD86Ig immobilized, purified monomeric analyte
[8] = molecular target: T3, CD80Ig; experiment: SPR (BIAcore), CD80Ig immobilized, purified monomeric analyte
[9] = molecular target: T4, CD86Ig; experiment: SPR, immobilized CD86Ig, monomer against dimer (L104EA29YIg)
[10] = molecular target: T4, CD86Ig; experiment: SPR, immobilized CD86Ig
[11] = molecular target: T3, CD80Ig; experiment: SPR (BIAcore), equilibrium, CD80Ig immobilized, purified monomeric analyte

Molecule: L104EA29TIg: double-site CTLA4 mutant Ig fusion, L104E and alanine +29 to threonine
slower “off” rate than wild type CTLA4Ig [1]: approximately 4 fold

Molecule: L104EA29LIg: double-site CTLA4 mutant Ig fusion, L104E and alanine +29 to leucine
slower “off” rate than wild type CTLA4Ig [1]: approximately 4 fold

Molecule: CS(=O)(=O)OCCCCOS(C)(=O)=O [busulfan]
levels of donor hematopoietic chimerism versus dose [3]: directly proportional to the administered busulfan dose | LD50 [4]: 136 mg/kg

The next lines start with the values.

slower “off” rate than wild type CTLA4Ig [1]: approximately 4 fold
Molecule: L104EA29WIg: double-site CTLA4 mutant Ig fusion, L104E and alanine +29 to tryptophan

koff [1]: 840 ± 55 (× 10^−3) S^−1 | kon [1]: 16.5 ± 0.5 (× 10^5) M^−1 S^−1 | koff [2]: 230 ± 10 (× 10^−3) S^−1 | kon [2]: 12.0 ± 1.0 (× 10^5) M^−1 S^−1
Molecule: CTLA4XC120S: single chain (monomeric) CTLA4 extracellular domain with cysteine 120 to serine mutation [reference compound]

fold higher affinity than CTLA4XC120S [5]: ~2 fold | fold slower rate of dissociation than CTLA4XC120S [5]: ~3 fold | koff [6]: 0.3 s⁻¹ | kon [6]: 1.14e+06 M⁻¹ s⁻¹ | Kd [7]: 267 nM | koff [8]: 0.071 s⁻¹ | kon [8]: 830000 M⁻¹ s⁻¹ | fold lower binding affinity than the respective dimer [9]: 35 to 80 fold | fold higher affinity than CTLA4XC120S [10]: ~2 fold | fold slower rate of dissociation than CTLA4XC120S [10]: ~3 fold | Kd [11]: 85 nM
B1: L104EA29YXC120S (receptor)
chain: MHVAQPAVVLASSRGIASFVCEYASPGKYTEVRVTVLRQADSQVTEVCAATYMMGNELTFLDDSICTGTSSGNQVNLTIQGLRAMDTGLYICKVELMYPPPYYEGIGNGTQIYVIDPEPSPDSD
notes: it was 'prepared in an identical manner' to CTLA4XC120S; also called monomeric L104EA29Y extracellular domain

koff [1]: 300 ± 10 (× 10^−3) S^−1 | kon [1]: 11.4 ± 1.6 (× 10^5) M^−1 S^−1 | higher affinity than CTLA4XC120S to CD86Ig ([1]; monomeric proteins): approximately 2 fold | slower rate of dissociation from CD86Ig than CTLA4XC120S ([1]; monomeric proteins): approximately 3 fold | koff [2]: 71 ± 5 (× 10^−3) S^−1 | kon [2]: 8.3 ± 0.26 (× 10^5) M^−1 S^−1 | higher affinity than CTLA4XC120S to CD80Ig ([2]; monomeric proteins): approximately 2 fold | slower rate of dissociation from CD80Ig than CTLA4XC120S ([2]; monomeric proteins): approximately 3 fold
B2: L104EA29YXC120S: single chain (monomeric) L104EA29Y extracellular domain with cysteine 120 to serine mutation (protein)
chain: MHVAQPAVVLASSRGIASFVCEYASPGKYTEVRVTVLRQADSQVTEVCAATYMMGNELTFLDDSICTGTSSGNQVNLTIQGLRAMDTGLYICKVELMYPPPYYEGIGNGTQIYVIDPEPSPDSD
